Data as given in publication PMC8233210, “The archaeal triphosphate tunnel metalloenzyme SaTTM defines structural determinants for the diverse activities in the CYTH protein family” (The Journal of Biological Chemistry, 2021).

Columns and labels:
[1] = molecular target: T1, SaTTM (Saci_0718) (Sulfolobus acidocaldarius, UniProt Q4JAT2); assay: X-ray crystal structure of the complex; assay type: binding; conditions: 10 mM CaCl2, 5 mM PPi, pH 4.6, 4 °C; also 10 mM MgCl2 crystal without bound Mg2+; closed tunnel, active site
T1 construct: full ORF, C-terminal His6 (pSVA1028), expressed in E. coli BL21-Gold (DE3), heat step, IMAC, SEC; homodimer of 56 kDa

[2] = substrate: O=P(O)(O)OP(=O)(O)OP(=O)(O)O; assay: malachite green phosphate release, Michaelis-Menten fit; assay type: biochemical, Sulfolobus acidocaldarius; conditions: 2 mM MgCl2, 50 mM Tris, 200 mM NaCl, pH 8.6, 75 °C, 5 nM enzyme
[3] = molecular target: the molecule itself; assay: SEC; analytical Superdex 200 10/300 GL, SEC buffer (200 mM NaCl, 50 mM Tris, pH 9.0), compared with standards

Row | Molecule | X-ray crystal structure of the complex [1] | Km [2] | kcat [2] [s⁻¹] | stoichiometry N [3]
1 | O=P(O)(O)OP(=O)(O)O [PPi, pyrophosphate] | we determined crystal structures of SaTTM in complex with pyrophosphate |  |  | 
2 | Sulfolobus acidocaldarius triphosphate tunnel metalloenzyme (SaTTM) (enzyme, Sulfolobus acidocaldarius DSM 639, UniProt Q4JAT2 1-185, looked up, SaTTM (Saci_0718), CYTH ortholog of Sulfolobus acidocaldarius DSM 639; ORF amplified from the genome and cloned NcoI/BamHI into pSA4 to give pSVA1028; No step that removes the His6 tag is described; The NcoI cloning site may have changed the residue after the first methionine; also called Saci_0718; S. acidocaldarius CYTH enzyme; source: E. coli BL21-Gold (DE3), purified (heat step 70 °C, Ni-NTA, …)) MSYIEREIKLRVISPSLEEIEERIRNNYTFINEEHQIDIYYNNPIRDFRKSDEALRLRNTNGKVILTYKGPKQSKETKTREEIEVEVSDLHKMDLILRKLGFIRSFQVEKIRKNYKYADFIISLDSIKELGEFIEIEGINKTEKELISFVDEFVKKHQIQYEKTIKSYLELLVEHAKKTNNSNTH |  | 41.0 (95% CI 29.8 to 55.4) μM | 5934 | 2
